{
  "source": "paper PMC1847943",
  "about": "(Molecular Systems Biology, 2007)",
  "data": [
    {"target": "the molecule itself", "test": "native gel or EMSA", "values": [
      {"protein": "KaiA (natural protein, Synechococcus elongatus PCC 7942, UniProt Q79PF6 1-284, looked up) MLSQIAICIWVESTAILQDCQRALSADRYQLQVCESGEMLLEYAQTHRDQIDCLILVAANPSFRAVVQQLCFEGVVVPAIVVGDRDSEDPDEPAKEQLYHSAELHLGIHQLEQLPYQVDAALAEFLRLAPVETMADHIMLMGANHDPELSSQQRDLAQRLQERLGYLGVYYKRDPDRFLRNLPAYESQKLHQAMQTSYREIVLSYFSPNSNLNQSIDNFVNMAFFADVPVTKVVEIHMELMDEFAKKLRVEGRSEDILLDYRLTLIDVIAHLCEMYRRSIPRET", "stoichiometry N": 2},
      {"protein": "KaiC (natural protein, Synechococcus elongatus PCC 7942, UniProt Q79PF4 1-519, looked up, phosphorylation level changes over the incubation with KaiA, KaiB and ATP (autophosphorylation)) MTSAEMTSPNNNSEHQAIAKMRTMIEGFDDISHGGLPIGRSTLVSGTSGTGKTLFSIQFLYNGIIEFDEPGVFVTFEETPQDIIKNARSFGWDLAKLVDEGKLFILDASPDPEGQEVVGGFDLSALIERINYAIQKYRARRVSIDSVTSVFQQYDASSVVRRELFRLVARLKQIGATTVMTTERIEEYGPIARYGVEEFVSDNVVILRNVLEGERRRRTLEILKLRGTSHMKGEYPFTITDHGINIFPLGAMRLTQRSSNVRVSSGVVRLDEMCGGGFFKDSIILATGATGTGKTLLVSRFVENACANKERAILFAYEESRAQLLRNAYSWGMDFEEMERQNLLKIVCAYPESAGLEDHLQIIKSEINDFKPARIAIDSLSALARGVSNNAFRQFVIGVTGYAKQEEITGLFTNTSDQFMGAHSITDSHISTITDTIILLQYVEIRGEMSRAINVFKMRGSWHDKAIREFMISDKGPDIKDSFRNFERIISGSPTRITVDEKSELSRIVRGVQEKGPES", "stoichiometry N": 6},
      {"protein": "KaiB (natural protein, Synechococcus elongatus PCC 7942, UniProt Q79PF5 1-102, looked up) MSPRKTYILKLYVAGNTPNSVRALKTLKNILEVEFQGVYALKVIDVLKNPQLAEEDKILATPTLAKVLPLPVRRIIGDLSDREKVLIGLDLLYGELQDSDDF", "stoichiometry N": 4}
    ]}
  ]
}
